The record followed here is patent publication US20040209289A1 (IMMUNEX, published 2004).

B1: murine B7RP-1 (full length, expressed on transfected 293 cells) (ligand, UniProt Q9JHJ8 44-322, looked up)
chain: ASAETEVGAMVGSNVVLSCIDPHRRHFNLSGLYVYWQIENPEVSVTYYLPYKSPGINVDSSYKNRGHLSLDSMKQGNFSLYLKNVTPQDTQEFTCRVFMNTATELVKILEEVVRLRVAANFSTPVISTSDSSNPGQERTYTCMSKNGYPEPNLYWINTTDNSLIDTALQNNTVYLNKLGLYDVISTLRLPWTSRGDVLCCVENVALHQNITSISQAESFTGNNTKNPQETHNNELKVLVPVLAVLAAAAFVSFIIYRRTRPHRSYTGPKTVQLELTDHA
notes: whole, on cells; also called B7h; B7-H2
B2: murine CD80 (full length, expressed on transfected 293 cells) (ligand, UniProt Q00609 38-306, looked up)
chain: VDEQLSKSVKDKVLLPCRYNSPHEDESEDRIYWQKHDKVVLSVIAGKLKVWPEYKNRTLYDNTTYSLIILGLVLSDRGTYSCVVQKKERGTYEVKHLALVKLSIKADFSTPNITESGNPSADTKRITCFASGGFPKPRFSWLENGRELPGINTTISQDPESELYTISSQLDFNTTRNHTIKCLIKYGDAHVSEDFTWEKPPEDPPDSKNTLVLFGAGFGAVITVVVIVVIIKCFCKHRSCFRRNEASRETNNSLTFGPEEALAEQTVFL
notes: whole, on cells; also called B7-1
B3: murine BTL-II (full length, expressed on transfected 293 cells) (ligand)
chain: FRVVGPNLPILAKVGEDALLTCQLLPKRTTAHMEVRWYRSDPAMPVIMYRDGAVVTGLPMEGYGGRAEWMEDSTEEGSVALKIRQVQPSDDGQYWCRFQEGDYWRETSVLLQVAALGSSPNIHVEGLGEGEVQLVCTSRGWFPEPEVHWEGIWGEKLMSFSENHVPGEDGLFYVEDTLMVRNDSVETISCFIYSHGLRETQEATIALSERLQTELVSVSVIGHSQPSPVQVGENIELTCHLSPQTDAQNLEVRWLRSRYYPAVHVYANGTHVAGEQMVEYKGRTSLVTDAIHEGKLTLQIHNARTSDEGQYRCLFGKDGVYQEARVDVQVTAVGSTPRITREVLKDGGMQLRCTSDGWFPRPHVQWRDRDGKTMPSFSEAFQQGSQELFQVETLLLVTNGSMVNVTCSISLPLGQEKTARFPLSDSKIALLWMTLPVVVLPLAMAMDLIKVKRRRRTNEQTHSSNQENNKNDENHRRRLPSDERLR

The first test deals with T1, ICOS-huFC (extracellular region of murine ICOS fused to a human Fc region from an IgG1 antibody) (murine; human, UniProt Q9WVS0 21-144; P01857 99-330 = IgG part, limits assumed).
T1 construct: extracellular domain;domain: Fc region; Made in transfected cells and purified by Protein A chromatography
T1 sequence (Q9WVS0 other isoform, or with tags, fused parts or gaps limits assumed): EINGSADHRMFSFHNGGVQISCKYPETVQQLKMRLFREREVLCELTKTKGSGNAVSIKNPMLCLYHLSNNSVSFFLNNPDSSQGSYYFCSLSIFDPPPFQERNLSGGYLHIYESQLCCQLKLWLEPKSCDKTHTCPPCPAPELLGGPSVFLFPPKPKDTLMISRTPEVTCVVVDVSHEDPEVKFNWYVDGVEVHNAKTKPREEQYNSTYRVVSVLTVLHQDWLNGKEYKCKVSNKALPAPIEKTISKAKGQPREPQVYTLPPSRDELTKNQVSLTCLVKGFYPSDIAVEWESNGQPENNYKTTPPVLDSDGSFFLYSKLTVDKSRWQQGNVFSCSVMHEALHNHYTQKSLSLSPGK
Briefly: FACS staining of transfected 293 cells with Fc fusion protein, labeled anti-human IgG Fc detection. As for the experimental part: (§1) Full length versions of each of three murine cDNAs (encoding BTL-II, B7RP-1, CD80) were inserted into a vector appropriate for expression. About 10 μg of each of these constructs, along with an empty vector, were used separately to transfect 293 cells. Two days post transfection, about one million cells from each of the four transfections were stained with each of the fusion proteins described above. Bound protein was detected using a fluorescently labeled antibody against the human IgG Fc region. The stained cells were analyzed by FACS.
On to B1, for which the binding result is reported as “binds”.

Take B2: the binding result was “no binding”.

In the case of B3, the binding result is recorded as “no binding”.

A further test deals with T2, PD1-huFC (extracellular region of murine PD-1 fused to a human Fc region of an IgG1 antibody) (murine; human, UniProt Q02242 25-169; P01857 100-330 = IgG part).
T2 construct: extracellular domain;domain: Fc region; Bought from R & D Systems
T2 sequence (Q02242 other isoform, or with tags, fused parts or gaps limits assumed): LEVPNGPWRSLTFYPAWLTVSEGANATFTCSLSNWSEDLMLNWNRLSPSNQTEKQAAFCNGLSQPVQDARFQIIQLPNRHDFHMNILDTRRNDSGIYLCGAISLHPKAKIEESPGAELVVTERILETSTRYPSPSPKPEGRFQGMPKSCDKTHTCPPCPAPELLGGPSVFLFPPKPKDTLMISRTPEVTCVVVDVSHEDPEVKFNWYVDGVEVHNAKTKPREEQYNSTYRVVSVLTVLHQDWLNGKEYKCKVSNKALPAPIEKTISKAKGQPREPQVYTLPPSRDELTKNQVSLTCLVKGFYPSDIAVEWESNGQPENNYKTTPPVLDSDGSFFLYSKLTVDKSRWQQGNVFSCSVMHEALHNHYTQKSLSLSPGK
The description is as above. As to the method:
as §1
As for B1, the binding result is recorded as “no binding”.

For the molecule B2, the binding result was “no binding”.

Consider B3, for which the binding result was “no binding”.

For another test, the target named is T3, CTLA4-huFC (extracellular region of murine CTLA4 fused to a human Fc region of an IgG1 antibody) (murine; human, UniProt P09793 36-161; P01857 99-330 = IgG part, limits assumed).
T3 construct: extracellular domain;domain: Fc region; Made in transfected cells and purified by Protein A chromatography
T3 sequence (P09793 other isoform, or with tags, fused parts or gaps limits assumed): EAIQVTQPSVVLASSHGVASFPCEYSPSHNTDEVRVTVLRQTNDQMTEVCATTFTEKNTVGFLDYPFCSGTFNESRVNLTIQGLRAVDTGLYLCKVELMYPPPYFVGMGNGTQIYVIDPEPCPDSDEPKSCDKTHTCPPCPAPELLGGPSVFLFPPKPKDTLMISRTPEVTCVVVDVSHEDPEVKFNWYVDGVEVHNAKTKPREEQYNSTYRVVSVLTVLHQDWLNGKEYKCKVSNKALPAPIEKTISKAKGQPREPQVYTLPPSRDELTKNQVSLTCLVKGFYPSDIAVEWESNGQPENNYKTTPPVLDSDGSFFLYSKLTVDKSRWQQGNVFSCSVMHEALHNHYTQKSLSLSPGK
The description is as above. As for the experimental part:
as §1
In the case of B1, the binding result is listed as “no binding”.

With B2, the binding result is recorded as “binds”.

Turning to B3, the binding result is reported as “no binding”.

For another test, the target named is T4, mCD28-huFC (extracellular region of murine CD28 fused to a human Fc region from an IgG1 antibody) (murine; human, UniProt P31041 20-150; P01857 100-330 = IgG part).
T4 construct: extracellular domain;domain: Fc region; Bought from R & D Systems
T4 sequence (P31041 other isoform, or with tags, fused parts or gaps limits assumed): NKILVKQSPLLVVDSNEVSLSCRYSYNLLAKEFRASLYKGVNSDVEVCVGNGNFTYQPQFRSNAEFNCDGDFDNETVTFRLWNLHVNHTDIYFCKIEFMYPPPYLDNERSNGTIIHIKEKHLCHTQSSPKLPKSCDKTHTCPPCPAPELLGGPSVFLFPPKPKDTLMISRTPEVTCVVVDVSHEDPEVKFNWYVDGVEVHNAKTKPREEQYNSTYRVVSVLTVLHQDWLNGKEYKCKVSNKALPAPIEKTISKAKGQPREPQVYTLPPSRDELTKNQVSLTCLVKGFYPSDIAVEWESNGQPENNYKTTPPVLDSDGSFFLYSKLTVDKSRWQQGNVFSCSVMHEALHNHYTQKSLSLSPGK
The description is as above. As for the experimental part:
as §1
B1: the binding result is “no binding”.

For B2, the binding result was “binds”.

Take B3: the binding result is reported as “no binding”.
